From the nanobody polyreactivity screen of Harvey et al. (2022)

Test: yeast display, Sf9 membrane polyspecificity reagent, FACS + sequencing; frameworks hold sequencing errors
Procedure, shortened: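 Galactose induction of a Saccharomyces cerevisiae BJ5465 synthetic nanobody display library ran 36–48 hours. The cells were then stained for 1 hour at 4 °C with 10% biotinylated, detergent-solubilized Sf9 membrane reagent, pulled down on streptavidin microbeads and FACS-sorted into low and high (top ~1%) gates on expression and reagent-binding fluorescence. Labels for polyreactivity follow the gate of origin.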

For “QDQLVDSGGGLVQAGGSLRLSCAASGSIQSRYAMGWYRQAPGKERELVAAISRSTDSTYYADSVKGRFTISRDNAKNTVYLKMNSLKPEDTAGYYCNAVYRSSYQKGSMDYWGQGTQVTVSS”, which “polyreactivity (PSR sort gate)” value is on record?
The value was “high polyreactivity”.

For “QDQLVDSGGGLVQAGGSLRLSCAASGTFFMGWYRQAPGKERELVAGISIYDGSTYYADSVKGRFTISRDNAKNTVYLQMNRLKPEDTAVYYCAAEFYPTTGFDYWGQGTQVTVSS”, which “polyreactivity (PSR sort gate)” value is on record?
Its value is “low polyreactivity”.

With “QDQLVDSGGGLVQAGGSLRLSCAASVRTFDRYAMGWYRQAPGKVRELVAAISGRGGSTYYADSVKGRFTISRDNAKNTVYLQMNSLKPEDTAVYYCAARGSLWGAPSDYYYCGQGTQVTVSS” as the sequence, how does the “polyreactivity (PSR sort gate)” value read?
The value was “high polyreactivity”.

Which “polyreactivity (PSR sort gate)” value does the source give for “QDQLVDSGGGLVQAGGSLSLSCAASGRTSGRYAMGWYRQAPGKERELVAGITSSGGSTYYADSVKGRFTISRDNAKNTVYLQMNSLKPEDTAVYYCAKVWGAKGKTYRMYSWGKGTQVTVSS” here?
Its value is “high polyreactivity”.

For “QDQLVDSGVGLVQAGGSLRLSCAASGLIFGRNVMGWYRQAPGKERELVAAISWSGGRTYYADSVKGRFTISRDNAKNTVYLQMNSLKPEDTAVDYCATDRSTRTYRSPYDYWGQGTQVTVSS”, which “polyreactivity (PSR sort gate)” value is on record?
The value was “high polyreactivity”.

With “QDQLVEACGGLVQAGGSLRLSCASSRSIIRGYAMGWYIQAHGKERELVAVIRRTSVSTYYADSVKGRFTISRDNAKNTVYLQMKCLKPEDTAVYYCNTLRLSSYPYYGYLGQGTQVTVSS” as the sequence, how does the “polyreactivity (PSR sort gate)” value read?
The value was “high polyreactivity”.

For “QDQLVEAGGGLVQAGGSLRKSCAASGRIFNTNAMGWNRQAPGKERELVAGITDSGDSTYYADSVKGRFTISRDNAKNTVYLQMNRLKPEDSAVYYCATDPASPYIYDFWGQGTQVTVSS”, which “polyreactivity (PSR sort gate)” value is on record?
The value was “low polyreactivity”.

For “QDQLVESAGGLVQAGGSLRLSCAASASIFVSYAMGWYRQAPGKERELVAAITRSGGSTYYSDSVKGRFTISRDNAKYTVYLQMNSLKPDDTAVYYCAARSYLGAYRRFYWGQGTQVTVSS”, which “polyreactivity (PSR sort gate)” value is on record?
The value was “high polyreactivity”.

For “QDQLVESAGGLVQAGGSLRLSCAASGSISYNNVMGWYRQAPGKERELVARIRSGGSTYYADSVKGRFTISRDNAKNTVYLQMNSLKPEDTAVYYCAARTKRQAGSYGYWGQGTQVTVSS”, which “polyreactivity (PSR sort gate)” value is on record?
The value was “high polyreactivity”.

Which “polyreactivity (PSR sort gate)” value does the source give for “QDQLVESAGGLVQAGGSLRLTCAASGFIFADNAMGWYRQAPGKERELVAGITSGGITYYADSVKGRFTISRDNAKNTVYLQMNCLKPEDTAVYYCNTTSYPEFDYWGHGTQVTVSS” here?
The value was “low polyreactivity”.

For “QDQLVESCGALVQAGGSLRLSCAASGSTFNFYAMGWYRQAPGKERELVAAITWRGGSTYYADSVKGRFTISRDFAKNTVYLQMNSLKPEDSAVYYCAAARGKDGYWGQGTQVNVSS”, which “polyreactivity (PSR sort gate)” value is on record?
Its value is “high polyreactivity”.

Which “polyreactivity (PSR sort gate)” value does the source give for “QDQLVESGGELVQAGGSLRLSCASSGRTFSANGMGWYRQAPAKERELVAAITRSGGITYYADSVKGRFTISRVNAKNTVYLQMNSLKPEDTAVYYCAASVYSLSRRSWMDYWGQGTQVTVSS” here?
Its value is “low polyreactivity”.

With “QDQLVESGGGFVQEGGSLRLSCDPSGRIFYGYVMGRYRQAHGKERELVAAISRRGGSTYYADSVKGRFTISRDNAKNTVYLQMNSMKPVVTAVDYCDAVLSFALVQYYGANRDDYWGQGTQVSVSS” as the sequence, how does the “polyreactivity (PSR sort gate)” value read?
Its value is “high polyreactivity”.

Which “polyreactivity (PSR sort gate)” value does the source give for “QDQLVESGGGIVQEGGILRLSCAASGRIFVGYAMGWYRQAPGKERELVAAIRRYGTGTYYADSVKGRFTISRDNAKYTVYLKLNSLKTEDTAVYYCDAPELALYFPYDYWGQGTQVTVSS” here?
Its value is “low polyreactivity”.

With “QDQLVESGGGLDQAGGSLRLSCAASGRIFARYAMGWYRLAPGKERELVAALSRGGSTKYADSVKGRFTISRDNAKNTVYLQLHSLQQEDTAVYYCARQLWGSQYGAYYAGDYWGQVTQVTVSS” as the sequence, how does the “polyreactivity (PSR sort gate)” value read?
The value was “low polyreactivity”.

Which “polyreactivity (PSR sort gate)” value does the source give for “QDQLVESGGGLDQAGGSLRLSCAASGSTFQLYAMGWYRQAPGKERELVAAISGIGDSTYYADSVKGRFTISRDNAKNTVYLQMNSLKPEDTAVYYCDREFSDGLSGKFDYWGQGTQVTVSS” here?
Its value is “low polyreactivity”.

Which “polyreactivity (PSR sort gate)” value does the source give for “QDQLVESGGGLDQAGGSLRLSCAASGSTFSPYAMGWYRQAPGKERELVAGITSSGGDSYYADSVKGRFTISRDNAKNTVYLQMKSLKPEDTAVYYCAADWWVLGQLCFDYWGQGTQVNVSS” here?
The value was “low polyreactivity”.

For “QDQLVESGGGLFQAGGSLRLSCAASGGIFGFYAMGWSRKAPGKERELVAAISWGGGSTYYADSVKGRFTISRDNAKNTVYLQMNSLKPEDTAFYYCAADPALTIEYGYWGQVTQVTVSS”, which “polyreactivity (PSR sort gate)” value is on record?
Its value is “low polyreactivity”.

With “QDQLVESGGGLFQAGGSLRLSCGASGFIFRWNAMGWSRQAPGKEREMVAAITRGGSTYYADSVKGRFSISRDNAKNTVYLQMNSLKPEDTAVYFCAAGYVYRGASGGYWGQGTQVTVSS” as the sequence, how does the “polyreactivity (PSR sort gate)” value read?
The value was “high polyreactivity”.

For “QDQLVESGGGLLQAGGSLRLSCAASGRTFNSYAMGWYRQAPGKERVLVAAISSSGGSTYYADSVKGRFTISRDNAKNTVYLEMNSLKPEDTAVYYCAAGLGSTSALLYGYWGQGTLVTVSS”, which “polyreactivity (PSR sort gate)” value is on record?
Its value is “high polyreactivity”.

With “QDQLVESGGGLVHAGGSLLLSCAACRRLFSQYVMGWYRQAPGKERELVAAISSGGGRTYYADSVKGRFTISRDYAKNTVYLQLNSLKPEDTAVYYCATLRPSAYPQYDSWGQGTQVTVSS” as the sequence, how does the “polyreactivity (PSR sort gate)” value read?
Its value is “high polyreactivity”.

Which “polyreactivity (PSR sort gate)” value does the source give for “QDQLVESGGGLVHAGGSLRLSCAASGNNFSSYVMGWYRQATGKERELVAAISSRGGSTYYADSVKGRFTISRDNSKNTVYLQMNCLKPEDTAVYYCAARYLSCYDWGQGTQVSVSS” here?
Its value is “high polyreactivity”.

For “QDQLVESGGGLVQAGASLRLSCAASGSIICLYAMGWYRQAPGKERELVARITRSGGRTYYADSVKGRFTISRDNAKNTVYLQTNSLKPEDTAVYYCNAYGPNIYSSRYDYWGQGTQVSVSS”, which “polyreactivity (PSR sort gate)” value is on record?
Its value is “low polyreactivity”.

For “QDQLVESGGGLVQAGGRLRLSCAASGFTFHKYAMGWSRPAPGKDRELVAAITSSGGSTYYADSVKGRFTISRDYAKNTVYLQMTSLKPEDTAVYYCNARGGGRKSYDYWGQGTQVTVSS”, which “polyreactivity (PSR sort gate)” value is on record?
The value was “high polyreactivity”.

With “QDQLVESGGGLVQAGGRLRLSCAASGLIFENYAMGWYRQSPGKERDLVAAITTSGGSTYYADSVKGRFTISRDNAKNTVYLQMNSLKPEDTAVYDCAAVGVRSRYYGYDYWGQGTLVTVSS” as the sequence, how does the “polyreactivity (PSR sort gate)” value read?
The value was “high polyreactivity”.

With “QDQLVESGGGLVQAGGRLRLSCAASGRTFYWNAMGWYRQAPGKERELVAAINGGGSTYYADSVKGRFTISRDNAMNTVYLQINSLKQEDSAVYYCNAESYEFHRAWGDYDYWGHGTQVTVSS” as the sequence, how does the “polyreactivity (PSR sort gate)” value read?
Its value is “low polyreactivity”.

Which “polyreactivity (PSR sort gate)” value does the source give for “QDQLVESGGGLVQAGGRLRLSCAASGSIFCGNAMGWYRQAPGKERDLVAAITYRSGRTYYADSVKGRFTISRDNAKNTVYFQMNSLKPEDTAVYDCAAEFGGASRYTYNYWGQGTQVTVSS” here?
The value was “low polyreactivity”.

For “QDQLVESGGGLVQAGGRLRLSCAASGSTFWWYDMGWYRKAHGKDRELVAAINWSGGSTYYADSVKGRFTISRDNAKNTVYLQMNSLKPEDTAVYYCAKVGRETEYDYWGQGTQVTVSS”, which “polyreactivity (PSR sort gate)” value is on record?
The value was “high polyreactivity”.

Which “polyreactivity (PSR sort gate)” value does the source give for “QDQLVESGGGLVQAGGSHRLSCAASGRNFNYNAMGWYRQAPGKERELVAAISGSGGRTYYADSVKGRFTISRDNAKNTVYLQMNSLKPEDTAVYYCAAAGYDSNGRYWGQGTLVTVSS” here?
Its value is “high polyreactivity”.

For “QDQLVESGGGLVQAGGSHRLSCAASGSIFYRNAMGWFRQAPGKERELVAAISARGGRTNYADSVKGRFTISRDNAKNTVYLQMTSLKPEDTAVYYCNTADSWYHRSQAYDYWGQGTQVTVSS”, which “polyreactivity (PSR sort gate)” value is on record?
Its value is “high polyreactivity”.

Which “polyreactivity (PSR sort gate)” value does the source give for “QDQLVESGGGLVQAGGSHRLSSAASGSILGAYAMGWYRQPPVKERELVAAISRNGGSTYYADSVKGRFTISRDNAKNTVYLQMNRLKPEDTAVYYCAAYYYDNEYDYWGQGTQVTVSS” here?
The value was “high polyreactivity”.

With “QDQLVESGGGLVQAGGSLRFSCAPSGFTFTRNPLGCYRQAPGQEREFVARISSRGGSTYYADSVKGRYTISRDIAKNSVYLQMNSLTPEDTAVNYCARDPVGTNSARYNYWGQGTQVTVSS” as the sequence, how does the “polyreactivity (PSR sort gate)” value read?
The value was “high polyreactivity”.

With “QDQLVESGGGLVQAGGSLRFSCASSGRIFRSYGMGWYRQAPGKERELVARIRNRGGSTYAHSVKGRFTISRDNAKNSVYLQMNSLKPEDTAVYYCAAGAYRHSVFSYDYWGQGTQVTVSS” as the sequence, how does the “polyreactivity (PSR sort gate)” value read?
The value was “high polyreactivity”.

For “QDQLVESGGGLVQAGGSLRLICAASGITFFGYVMGWYRQAPGKERELVAAINSRGGNTYYADSVKGRFTSSRDNAKNTVYLQMNSLKPEDTAVYYCAASNGYQAVTYDYWGQGTQVTVSS”, which “polyreactivity (PSR sort gate)” value is on record?
Its value is “high polyreactivity”.

With “QDQLVESGGGLVQAGGSLRLRCAASGSILWYYAMGWYRQAPGKERELVASISYSGGSTYYADSVKGRFTISRDNAKNTVYLQMNSLKPEDTAVYYCNADTITYQGYDYGYWGQGTQVTVSS” as the sequence, how does the “polyreactivity (PSR sort gate)” value read?
Its value is “low polyreactivity”.

With “QDQLVESGGGLVQAGGSLRLSCAASAFIFSSNAMGWYRQAPGKEREFVAAISFRGGTTYYADSVKGRFTISRDNAKNTVYLQMNSLKPEDTAVYYCNAVRWRSGRWWWYDYWGQGTQVTVSS” as the sequence, how does the “polyreactivity (PSR sort gate)” value read?
The value was “low polyreactivity”.

Which “polyreactivity (PSR sort gate)” value does the source give for “QDQLVESGGGLVQAGGSLRLSCAASALIFSLNAMGWYRQAPGTERELVAAISSDDSTYYADSVKGRFTISRDNAKNTVYLQMNSLKPEDTAVYYCAAVQLVPGYVDSNDYYWGQGTQVTVSS” here?
Its value is “low polyreactivity”.

For “QDQLVESGGGLVQAGGSLRLSCAASGFIFENYTLGWYRLAPGKERELVAAITSSGGSTYYADSVKGRFTISRDNAKNTVYLPLNSLNPDVTAVYYCNKRWFRDYDYWGQGTQVTVSS”, which “polyreactivity (PSR sort gate)” value is on record?
Its value is “high polyreactivity”.

With “QDQLVESGGGLVQAGGSLRLSCAASGFIFGRYAMGWYRQAPGKERELVATISRCGGSTYYADSVKGRFTISRDNAKKTVYLQMNSLKPEDTAVYYCAATYYQLFGTILHGYWGQGTQVTVSS” as the sequence, how does the “polyreactivity (PSR sort gate)” value read?
The value was “low polyreactivity”.

For “QDQLVESGGGLVQAGGSLRLSCAASGFIFLNYTMGWYRQAPGKERELVAAISNGSDRTYYADSVKGRFTISRDKAKNTVYLQMNSLTPEDTAVYYCAKDRDFSSPPTESGFDYWGQGTQVTVSS”, which “polyreactivity (PSR sort gate)” value is on record?
The value was “low polyreactivity”.

With “QDQLVESGGGLVQAGGSLRLSCAASGFIFSSYAIGWYRQAPGKERELVAAITSGGSTNYADSVKGRFTLSRDNAKNTVYLQMNSLKPEDTAVYYCATVPGGSWFFHWWSTGGDDEYWGQGTQVTVSS” as the sequence, how does the “polyreactivity (PSR sort gate)” value read?
The value was “low polyreactivity”.
